Results taken from paper PMC4321732 (Structure (London, England : 1993), 2015).
*1 amine or outer side, *2 acyl side, *3 side chain or, on linkers, in order; H or OH if unused. Where no end group is shown, it is not given here. [ ]: non-standard residue; d: D form. KCme2 = N-dimethylated aminoethylcysteine, CN(C)CCSC[C@H](N[*:1])C(=O)[*:2]; Me2 = dimethyl group on the Lys side-chain amine

B1: p53K370me2 peptide (residues R363-T377 of p53) (peptide, UniProt P04637 363-377, looked up)
peptide: RAHSSHLK(Me2)SKKGQST
B2: p53KC382me2 peptide (recombinant, dimethyllysine analogue at 382) (peptide)
peptide: GHMSTSRHKCLMFKT
modifications: not fully specified (residue 10)
B3: p53H380GKC382me2 peptide (peptide)
peptide: GHMSTSRGKCLMFKT
modifications: not fully specified (residue 10)
B4: p53K381GKC382me2 peptide (peptide)
peptide: GHMSTSRHGCLMFKT
modifications: not fully specified (residue 10)
B5: p53KC382me2F385G peptide (peptide)
peptide: GHMSTSRHKCLMGKT
modifications: not fully specified (residue 10)
B6: p53KC382me2L383G peptide (peptide)
peptide: GHMSTSRHKCGMFKT
modifications: not fully specified (residue 10)
B7: p53R379GKC382me2 peptide (peptide)
peptide: GHMSTSGHKCLMFKT
modifications: not fully specified (residue 10)
B8: p53K370me2K382me2 peptide (residues S366-K386) (peptide, UniProt P04637 366-386, looked up)
peptide: SSHLKSKKGQSTSRHKKLMFK
modifications: dimethyllysine at 370; dimethyllysine at 382
B9: p53K382me2 peptide (residues S376-T387 of p53) (peptide, UniProt P04637 376-387, looked up)
peptide: STSRHKK(Me2)LMFKT
B10: p53KC370me2 peptide (recombinant, dimethyllysine analogue at 370) (peptide)
peptide: GHMRAHSSHLCSKKGQST
modifications: not fully specified (residue 11)
B11: p53H365GKC370me2 peptide (peptide)
peptide: GHMRAGSSHL[KCme2]SKKGQST
B12: p53H368GKC370me2 peptide (peptide)
peptide: GHMRAHSSGLCSKKGQST
modifications: not fully specified (residue 11)
B13: p53KC370me2K372G peptide (peptide)
peptide: GHMRAHSSHLCSGKGQST
modifications: not fully specified (residue 11)
B14: p53KC370me2K373G peptide (peptide)
peptide: GHMRAHSSHLCSKGGQST
modifications: not fully specified (residue 11)
B15: p53L369GKC370me2 peptide (peptide)
peptide: GHMRAHSSHGCSKKGQST
modifications: not fully specified (residue 11)

Biological target: T1, tandem Tudor domain (TTD) of human 53BP1 (human, UniProt Q12888 1484-1603)
Test: solution NMR structure

T1 sequence (Q12888 1484-1603): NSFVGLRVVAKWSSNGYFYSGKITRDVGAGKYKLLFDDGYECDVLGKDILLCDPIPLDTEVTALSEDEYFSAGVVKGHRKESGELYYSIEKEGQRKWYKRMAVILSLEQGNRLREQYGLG

Binding result, binds:
B1

Biological target: T1, tandem Tudor domain (TTD) of human 53BP1
Test: NMR titration

Binding result, binds:
B2
B3
B4
B5
B6
B7
B8
B9
B10
B11
B12
B13
B14
B15
